Results: patent US20190352405A1 (I MAB BIOPHARMA US, published 2019)

Tests used:
[1] = target: T1, recombinant PD-L1 protein (human PD-L1-his taq) (human, UniProt Q9NZQ7 19-238); test: SPR (Biacore T200), antibody captured by anti-human Fc on CM5 chip, PD-L1-his as analyte
T1 construct: also called human PD-L1-his taq protein; his-PDL1; not shown: his tag
Protocol: A series of dilutions of human PD-L1-his taq protein were injected over captured antibody for 3 mins at a flow rate of […]. The antigen was allowed to dissociate for 900s. All the experiments were carried out on a Biacore T200. Data analysis was carried out using Biacore T200 evaluation software.

[2] = target: T2, IL7 receptor (IL7R) on human primary CD4+ T cells (human, UniProt P16871 21-459); test: FACS on human primary CD4+ T cells, 4 °C for 30 min, PE anti-human Fc secondary antibody, MFI; fit value printed for a nearly flat control curve; the EC50 column has no unit, nM is taken from the x axis (Log [Conc.] / nM)
T2 construct: whole, on cells; Native receptor on cells; also called surface IL7R; CD127 (IL7Ra)
T2 sequence (looked up): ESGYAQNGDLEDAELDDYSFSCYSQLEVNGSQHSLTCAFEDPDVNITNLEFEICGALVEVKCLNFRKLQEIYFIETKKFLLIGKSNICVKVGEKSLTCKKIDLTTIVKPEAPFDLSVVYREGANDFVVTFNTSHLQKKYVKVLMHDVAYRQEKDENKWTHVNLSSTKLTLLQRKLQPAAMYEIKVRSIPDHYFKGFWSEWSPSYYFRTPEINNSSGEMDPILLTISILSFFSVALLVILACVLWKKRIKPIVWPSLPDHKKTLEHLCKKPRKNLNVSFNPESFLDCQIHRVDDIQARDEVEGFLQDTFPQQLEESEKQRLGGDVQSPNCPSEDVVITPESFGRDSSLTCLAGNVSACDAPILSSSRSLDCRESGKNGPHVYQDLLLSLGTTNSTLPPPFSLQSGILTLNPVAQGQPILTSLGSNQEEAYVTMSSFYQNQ
Protocol: PE-conjugated anti-human Fc secondary antibody were used to detect the fusion molecules that bound to the IL7R of CD4⁺ T cells by FACS. […] For ligation-mediated receptor internalization assay, human primary CD4⁺ T cells were cocultured with fusion molecules at 37° C. for 15 mins. PE-cy7-conjugated-anti-CD127 (IL7Ra) antibody was used to detect the surface IL7R by FACS.

[3] = target: T3, PD-L1 expressed on Raji cells (PDL1-Raji cells) (UniProt Q9NZQ7 19-290, limits assumed); test: FACS on PDL1-Raji cells, Alexa 488 anti-human IgG secondary antibody, MFI; the EC50 table has no unit, nM is taken from the x axis (Log [Conc.] / nM)
T3 construct: whole, on cells; also called mammalian expressed PD-L1
Protocol: After washing by FACS buffer (PBS with 2% FBS), the Alexa 488-anti-human IgG antibody was added to each well and incubated at RT for 1 hour. The MFI of Alexa 488 were evaluated by FACSAriaIII.

T1 sequence (Q9NZQ7 19-238 limits assumed): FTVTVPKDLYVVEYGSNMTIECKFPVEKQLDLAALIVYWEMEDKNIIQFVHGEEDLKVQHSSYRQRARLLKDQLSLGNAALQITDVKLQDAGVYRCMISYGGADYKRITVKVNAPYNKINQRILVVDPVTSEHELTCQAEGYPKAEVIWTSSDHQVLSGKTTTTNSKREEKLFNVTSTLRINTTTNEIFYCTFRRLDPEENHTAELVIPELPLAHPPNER
T3 sequence (Q9NZQ7 19-290 limits assumed): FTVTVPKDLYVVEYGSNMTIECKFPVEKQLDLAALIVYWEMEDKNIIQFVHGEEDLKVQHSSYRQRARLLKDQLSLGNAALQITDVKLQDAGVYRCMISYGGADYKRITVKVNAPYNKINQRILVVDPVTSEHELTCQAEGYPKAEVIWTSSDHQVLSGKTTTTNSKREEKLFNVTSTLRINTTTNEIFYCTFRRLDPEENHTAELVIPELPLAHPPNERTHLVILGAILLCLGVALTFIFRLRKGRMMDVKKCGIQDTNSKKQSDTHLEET

B1: Anti-PDL1 mAb (antibody, V domains shown)
VH: EVQLVESGGGLVQPGGSLRLSCAASGFTFSSYDMSWVRQAPGKSLEWVATISDAGGYIYYSDSVKGRFTISRDNAKNSLYLQMNSLRDEDTAVYICAREFGKRYALDYWGQGTTVTVSS
VL: DIQMTQSPSSLSASVGDRVTITCKASQDVTPAVAWYQQKPGKAPKLLIYSTSSRYTGVPSRFSGSGSGTDFTFTISSLQPEDIATYYCQQHYTTPLTFGQGTKLEIK
notes: also called anti-PDL1 monoclonal antibody; anti-PDL1 antibody
[1]
  Kd: 2.09 nM
  koff: 0.000178 s⁻¹
  kon: 85000 M⁻¹ s⁻¹
[2]
  EC50: 35 nM
[3]
  EC50: 7.99 nM
